Experimental findings from patent publication US20180118841A1 (published 2018) are described below.

Assay [1] has as its target T1, CTLA-4 (BMS, Orencia) (human).
T1 chain: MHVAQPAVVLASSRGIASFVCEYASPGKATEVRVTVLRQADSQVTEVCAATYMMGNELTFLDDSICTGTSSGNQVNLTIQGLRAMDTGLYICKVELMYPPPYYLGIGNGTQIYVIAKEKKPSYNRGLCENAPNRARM
Nature of the assay: cell-based or functional assay.

For assay [2], the target named is T2, CD137 human/mouse chimera 1554 (human; mouse, UniProt P20334 96-159, limits assumed).
T2 construct: domain: 3B, 4A and 4B; On 293-F cells; Human ranges derived from the printed mouse range; also called 1411
Kind of assay: FACS, 293-F transfectants; MFI/isotype, normalized to full-length CD137.

In assay [3] the target is CD137 on primary human CD8+ T cells (human, UniProt Q07011 24-255). Nature of the assay: cell-based or functional assay.
Chain of CD137 on primary human CD8+ T cells (Q07011 24-255 limits assumed): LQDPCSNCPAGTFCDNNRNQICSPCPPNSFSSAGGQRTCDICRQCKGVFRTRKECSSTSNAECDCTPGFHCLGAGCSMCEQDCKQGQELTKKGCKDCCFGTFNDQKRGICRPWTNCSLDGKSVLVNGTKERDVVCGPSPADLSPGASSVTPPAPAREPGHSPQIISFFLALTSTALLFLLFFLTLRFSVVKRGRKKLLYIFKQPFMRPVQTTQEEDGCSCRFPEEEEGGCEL

T2 sequence (P20334 other isoform, or with tags, fused parts or gaps mutant limits assumed): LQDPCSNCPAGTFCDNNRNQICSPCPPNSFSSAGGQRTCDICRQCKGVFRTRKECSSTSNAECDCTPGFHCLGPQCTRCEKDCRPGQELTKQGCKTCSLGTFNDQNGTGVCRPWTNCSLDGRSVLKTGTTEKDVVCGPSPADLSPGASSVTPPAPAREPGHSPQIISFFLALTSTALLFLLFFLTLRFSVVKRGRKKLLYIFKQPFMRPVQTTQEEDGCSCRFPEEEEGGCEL

B1: bispecific OX40/CTLA-4 molecule 1526/1585 (bispecific antibody, human IgG1, kappa)
heavy: not shown
light: DIQMTQSPSSLSASVGDRVTITCRASQSISSYLNWYQQKPGKAPKLLIYAASSLQSGVPSRFSGSGSGTDFTLTISSLQPEDFATYYCQQYGSDSLLTFGQGTKLEIKRTVAAPSVFIFPPSDEQLKSGTASVVCLLNNFYPREAKVQWKVDNALQSGNSQESVTEQDSKDSTYSLSSTLTLSKADYEKHKVYACEVTHQGLSSPVTKSFNRGECSGGGGSGGGGSAPLKIQAYFNETADLPCQFANSQNLSLSELVVFWQDQENLVLNEVYLGKERFDSVDSKYMGRTSFDSDSWTLRLHNLQIKDKGRYQCIIHHKKPTGMINIHQMNSELSVLA
In the case of B1, the “Mean IL-2 level (pg/ml) induced at 1.5 nM” value in assay [1] is 3200 pg/mL.

B2: anti-CD137 antibody 1204/1205 (antibody, IgG1, V domains shown)
VH: EVQLLESGGGLVQPGGSLRLSCAASGFTFSSYYMGWVRQAPGKGLEWVSGIGSYYGYTGYADSVKGRFTISRDNSKNTLYLQMNSLRAEDTAVYYCARAYYDYNYYYAYFDYWGQGTLVTVSS
VL: DIQMTQSPSSLSASVGDRVTITCRASQSISSYLNWYQQKPGKAPKLLIYAASSLQSGVPSRFSGSGSGTDFTLTISSLQPEDFATYYCQQSVPHYPFTFGQGTKLEIK
notes: Produced as IgG; IgG1 format stated for the T cell assay
Molecule B2 gave a relative binding in assay [2] of 0.73. The “Mean IFN-γ (pg/ml), CD8+ T cell assay” value in assay [3] amounted to 64400 pg/mL.
